In PMC8484739 (The Journal of Biological Chemistry, 2021):
Read-outs that look alike come from different tables or passages of the source. Each block holds one molecule with its values, some of them ahead of it.

What was measured:
[1] = molecular target: wild type CD70-His-Avi (human) (UniProt P32970); test: SPR
[2] = molecular target: wild type CD70-His-Avi (human) (UniProt P32970); test: SPR; remark: listed apart in the source
[3] = molecular target: wild type CD70-His-Avi (human) (UniProt P32970); test: SPR; remark: listed apart in the source
SEC = molecular target: the molecule itself; test: SEC
[4] = molecular target: human CD70 S137K, His-Avi tagged, purified (human) (UniProt P32970); test: SPR
CD70-H148E (human) = CD70-H148E (human) (UniProt P32970); test: SPR
CD70-Q61A (human) = CD70-Q61A (human) (UniProt P32970); test: SPR
CD70-S137A (human) = CD70-S137A (human) (UniProt P32970); test: SPR
CD70-S137E (human) = CD70-S137E (human) (UniProt P32970); test: SPR
CD70-H148A (human) = CD70-H148A (human) (UniProt P32970); test: SPR
CD70-A80R (human) = CD70-A80R (human) (UniProt P32970); test: SPR
CD70-S146A (human) = CD70-S146A (human) (UniProt P32970); test: SPR
CD70-S137K (human) = CD70-S137K (human) (UniProt P32970); test: SPR
CD70-A80F (human) = CD70-A80F (human) (UniProt P32970); test: SPR
CD70-H148D (human) = CD70-H148D (human) (UniProt P32970); test: SPR
wild type CD70-His-Avi = molecular target: T1, wild type CD70-His-Avi (human, UniProt P32970 45-193); test: SPR
T1 sequence (looked up): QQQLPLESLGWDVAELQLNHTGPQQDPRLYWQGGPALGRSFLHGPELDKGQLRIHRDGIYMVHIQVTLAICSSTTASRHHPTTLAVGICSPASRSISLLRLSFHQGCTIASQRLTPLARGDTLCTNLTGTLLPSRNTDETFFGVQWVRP

Molecule: deglycosylated human CD27 (from UniProt P26842 23-127) (receptor)
Kd [1]: 118 nM | half-life (calculated from kd) [1]: 1.9 min

B1: glycosylated human CD70 (crystallisation construct) (ligand, UniProt P32970 45-193, looked up)
chain: QQQLPLESLGWDVAELQLNHTGPQQDPRLYWQGGPALGRSFLHGPELDKGQLRIHRDGIYMVHIQVTLAICSSTTASRHHPTTLAVGICSPASRSISLLRLSFHQGCTIASQRLTPLARGDTLCTNLTGTLLPSRNTDETFFGVQWVRP
modifications: N-linked glycans on N63 and N170; core fucosylation at N63
stoichiometry N (SEC): 3

B4: CD27-S83A (receptor, human, UniProt P26842 23-127, looked up)
chain: APKSCPERHYWAQGKLCCQMCEPGTFLVKDCDQHRKAAQCDPCIPGVSFSPDHHTRPHCEACRHCNSGLLVRNCTITANAECACRNGWQCRDKECTECDPLPNPS
modifications: glycosylated
Kd (wild type CD70-His-Avi): 254 nM | koff (wild type CD70-His-Avi): 0.00854 s⁻¹ | kon (wild type CD70-His-Avi): 33600 M⁻¹ s⁻¹

B5: CD27-R30A (receptor, human, UniProt P26842 23-127, looked up)
chain: APKSCPEAHYWAQGKLCCQMCEPGTFLVKDCDQHRKAAQCDPCIPGVSFSPDHHTRPHCESCRHCNSGLLVRNCTITANAECACRNGWQCRDKECTECDPLPNPS
modifications: glycosylated
Kd (wild type CD70-His-Avi): 351 nM | koff (wild type CD70-His-Avi): 0.0047 s⁻¹ | kon (wild type CD70-His-Avi): 13400 M⁻¹ s⁻¹

B6: CD27-N95A (receptor, human, UniProt P26842 23-127, looked up)
chain: APKSCPERHYWAQGKLCCQMCEPGTFLVKDCDQHRKAAQCDPCIPGVSFSPDHHTRPHCESCRHCNSGLLVRACTITANAECACRNGWQCRDKECTECDPLPNPS
Kd (wild type CD70-His-Avi): 100 nM | koff (wild type CD70-His-Avi): 0.00726 s⁻¹ | kon (wild type CD70-His-Avi): 72500 M⁻¹ s⁻¹

B7: CD27-K115A (receptor, human, UniProt P26842 23-127, looked up)
chain: APKSCPERHYWAQGKLCCQMCEPGTFLVKDCDQHRKAAQCDPCIPGVSFSPDHHTRPHCESCRHCNSGLLVRNCTITANAECACRNGWQCRDAECTECDPLPNPS
modifications: glycosylated
Kd (wild type CD70-His-Avi): 102 nM | koff (wild type CD70-His-Avi): 0.00351 s⁻¹ | kon (wild type CD70-His-Avi): 34500 M⁻¹ s⁻¹

Further lines, results first:

Kd [1]: 134 nM | half-life (calculated from kd) [1]: 2.67 min | Kd [2]: 121 nM | Kd [3]: 135 nM
Molecule: human CD27 wild-type (glycosylated) (from UniProt P26842 23-127) (receptor)

Kd [4]: 113 nM
B2: human CD27 wild type, glycosylated (residues A23-S127) (receptor)
chain: APKSCPERHYWAQGKLCCQMCEPGTFLVKDCDQHRKAAQCDPCIPGVSFSPDHHTRPHCESCRHCNSGLLVRNCTITANAECACRNGWQCRDKECTECDPLPNPS
modifications: N-linked glycan (glycosylated form)

Kd (CD70-H148E (human)): 380 nM | Kd (CD70-Q61A (human)): 205 nM | Kd (CD70-S137A (human)): 156 nM | Kd (CD70-S137E (human)): 526 nM | Kd (CD70-H148A (human)): 236 nM | Kd (CD70-A80R (human)): 163 nM | Kd (CD70-S146A (human)): 116 nM | Kd (CD70-S137K (human)): 135 nM | Kd (CD70-A80F (human)): 643 nM | Kd (CD70-H148D (human)): 477 nM
B3: human CD27 wild-type (glycosylated) (receptor)
chain: APKSCPERHYWAQGKLCCQMCEPGTFLVKDCDQHRKAAQCDPCIPGVSFSPDHHTRPHCESCRHCNSGLLVRNCTITANAECACRNGWQCRDKECTECDPLPNPS
modifications: N-linked glycans kept (glycosylated; no Endo H digestion)
